Consider 167 variants from the RNAGym collection of RNA variant scans (doi:10.7554/elife.80360).

B1: HDV Ribozyme (parent)
chain: GGCCGGCAUGGUCCCAGCCUCCUCGCUGGCGCCGGCUGGGCAACAUUCCGAGGGGACCGUCCCCUCGGUAAUGGCGAAUGGGACCCA

In this data set the parent is B1. Kind of data set: self-cleavage, relative activity (ratio to wild type); higher = more cleavage; co-transcriptional.
For the variant C22U A77U, the self-cleavage amounted to 0.233. On to C57A C84G, for which the self-cleavage stood at 0.727. As for U9A C85A, the self-cleavage was determined as 0.902. As for U12G C33U, the self-cleavage is 0.277.

With G25U G31A, the self-cleavage stood at 0.157.

In the case of G5A A87G, the self-cleavage amounted to 0.252.

For the variant G34C U46G, the self-cleavage amounted to 0.0504. For U20C C64U, the self-cleavage came to 0.244. With C64G C66U the figure was 0.955; with C61A C64U, 0.997; with C21A G28U, 0.196. On to G1C G29U, for which the self-cleavage worked out at 0.142. With G34C C44U the figure was 0.0739; with U27G C75G, 0.119. Next, U9G G28U: 0.151; A51C C64U: 0.9. With G10U G29C the figure was 0.0615; with C19A G73U, 0.0631. With A16U C36U, the self-cleavage amounted to 0.631. With U20A U60A the figure was 0.142. With G68U U79G the figure was 0.374. With A8U A45G the figure was 0.489. Turning to G2C C66A, the self-cleavage was 0.0913.

As for U12G C75G, the self-cleavage was determined as 0. With G39C C41A the figure was 0.802. As for G31U G67U, the self-cleavage came to 0.297. With G35U G39C, the self-cleavage worked out at 0.

As to C4G C49A, the self-cleavage worked out at 0.346. Next, C64G A87C: 0.778; C24U A77U: 0.0791; U47G U79C: 0.322. With U23G G54A the figure was 0.928. As for G28U A70C, the self-cleavage was found to be 0.131. Next, U9C C24U: 1.05; U27A A43C: 0.0723. With G35A C62G the figure was 0.448. Next, C21G G34C: 0.111; C32A C49A: 0.415.

With C49U C66G, the self-cleavage came to 0.892.

Regarding C66G G82C, the self-cleavage is 0.0959.

C62U C86U: the self-cleavage came out at 0.845. With C30U G52C the figure was 0.709; with G59A G76A, 1.07.

Take G25C U69C: the self-cleavage turned out to be 0.175. As for C7A A78U, the self-cleavage is 0.0791. With C36A C86A the figure was 0.134. Next, G6C C33U: 0.155; U12G C41G: 0.554. With G10C C33A the figure was 0.213; with C3U U72G, 0.453; with C26U C44G, 0.831. For G34C G82C, the self-cleavage turned out to be 0.117. Next, G5C A45C: 0.0639. C22A G53A: the self-cleavage worked out at 0.222. Next, G34C G76A: 0.163. Take G17C A51C: the self-cleavage came out at 0.308.

With C22U C85A, the self-cleavage turned out to be 0.59.

For the variant C3U C24U, the self-cleavage came out at 0.679.

As for G5A G59A, the self-cleavage came to 0.407. Next, U60A A70G: 0.77; C13A C32U: 0.375; U12C C57G: 0.0831. Next, C64A A87G: 0.902; C58G G73U: 0.217.

Turning to C66A C84G, the self-cleavage amounted to 0.692. Turning to C3G A87U, the self-cleavage came to 0.875. For C32A C36G, the self-cleavage was 0.162. With G11A A45U the figure was 0.222; with C32U G50U, 0.844.

For G10A A56C, the self-cleavage turned out to be 0.78. As to C3G G53C, the self-cleavage worked out at 0.609. G10C U65C: the self-cleavage amounted to 0.831. G34A C49G: the self-cleavage turned out to be 0.155. Consider C14A C22G, for which the self-cleavage was 0.0573. Next, C4U C58A: 0.852; A45C C62U: 0.895. With G39A U72C the figure was 0.135. On to G11U A77U, for which the self-cleavage was 0.0906.

As for A43G G52A, the self-cleavage is 0.577.

Turning to G59U U60G, the self-cleavage amounted to 0.88.

For C15A C32U, the self-cleavage stood at 0.314.

As to G2U U23A, the self-cleavage is 0.0391. In the case of G10C G25A, the self-cleavage stood at 0.308.

For the variant U47A C61U, the self-cleavage was 0.814. With C18A C30A the figure was 0.141; with C22G G50C, 0. Next, U46C C63A: 0.718; U9C U60C: 1.11; C21G G28U: 0.0287.

For G10U C57U, the self-cleavage is 0.855. On to C15G G54A, for which the self-cleavage turned out to be 0.534. With C57A G80A the figure was 0.218.

For the variant C57G C63G, the self-cleavage is 1.09. Next, G34U A45U: 0.0378. Take C24A G54A: the self-cleavage worked out at 0.774. For G2C G28A, the self-cleavage was found to be 0.0475.

C24A C36U: the self-cleavage is 0.254. Consider U23A G81A, for which the self-cleavage was determined as 0.305.

For C18G G54U, the self-cleavage stood at 0.0563. With C4G G39A the figure was 0.0183. With C4G G39C the figure was 0.0326; with U9A C18U, 0.991; with C14A C24G, 0.146. With C21U G29A the figure was 0.0683; with C48U G53C, 0.997. Consider G35C C57G, for which the self-cleavage amounted to 0.201. With A8C C15A the figure was 0.199; with C36U A83U, 0.408. Take C13U C86U: the self-cleavage was 1.1.

For the variant C3A G40U, the self-cleavage came to 0.256.

As for C4U G54A, the self-cleavage stood at 0.791.

Turning to C24U U65A, the self-cleavage is 0.469.

Take C21U U23G: the self-cleavage was found to be 0.13. Next, C7G C86A: 0.426; C7U C84A: 1.14.

Consider C18G U79A, for which the self-cleavage was found to be 0.0615. As for G35U G82A, the self-cleavage was 0.0841. Turning to G10U G34C, the self-cleavage was 0.189. With G11A C19G the figure was 0.0231; with U12C A51C, 0.378.

Take C7A A56U: the self-cleavage worked out at 0.617.

Consider C32U C48G, for which the self-cleavage stood at 1.04. With U27A the figure was 0.916; with G55U G80A, 0.477.

Take C3G C85G: the self-cleavage came out at 0.774. With U47A C86U the figure was 0.88. On to C62U G73U, for which the self-cleavage was found to be 0.472. With U27C A51U the figure was 0.804; with G2A G11A, 0.0786. Regarding U27G G74U, the self-cleavage came out at 0.151. Take G6C C22G: the self-cleavage is 0.145. Next, G5C C41A: 0.0665; C3A A83G: 0.434; C18U G73U: 0.111. With U27C C86G the figure was 1.2. With G1A C44U the figure was 0.0898; with G2A U37A, 0.0755; with C26A U60A, 1.02. In the case of G38A G55C, the self-cleavage came to 0.218. Next, C14G C75A: 0.111.

For U20C G34U, the self-cleavage amounted to 0.086.

For G29A A78U, the self-cleavage stood at 0.143. With A42G G50A, the self-cleavage stood at 0.446. Next, G31C G52A: 0.234. Next, G29A G50U: 0.241. Regarding G5C C14U, the self-cleavage was 0.506. With G39U A77C the figure was 0.233. On to U65A G74U, for which the self-cleavage was determined as 0.428.

As for C3A C36A, the self-cleavage is 0.071. Consider C19G C85A, for which the self-cleavage was 0.148. U47A C85G: the self-cleavage was found to be 0.665. For C49U C85A, the self-cleavage came to 1.17. With C14G G25A the figure was 0.0437. For G1U C61G, the self-cleavage stood at 0.326. Next, C57U C62A: 0.941. With C21A A78U, the self-cleavage was 0.0573.

With C26G C61A, the self-cleavage was 1.12.

Turning to U23C A77G, the self-cleavage came out at 0.587. With G59A U72C the figure was 0.607; with C58U G74C, 0.227. Next, G1C U46A: 0.138; G34C C85A: 0.249. Next, G29A U46A: 0.156; G28C C48G: 0.138. Turning to C57A G74U, the self-cleavage amounted to 0.356. As for G5C G68U, the self-cleavage was 0.0615. On to G50C G53U, for which the self-cleavage was determined as 0.338.
